Target: native PfCSP on PfCSP-expressing Plasmodium berghei (PbPf) sporozoites (Plasmodium falciparum) (UniProt P19597)
Test: cell-based or functional assay

UniProt P19597, sequence (P19597 19-374 limits assumed): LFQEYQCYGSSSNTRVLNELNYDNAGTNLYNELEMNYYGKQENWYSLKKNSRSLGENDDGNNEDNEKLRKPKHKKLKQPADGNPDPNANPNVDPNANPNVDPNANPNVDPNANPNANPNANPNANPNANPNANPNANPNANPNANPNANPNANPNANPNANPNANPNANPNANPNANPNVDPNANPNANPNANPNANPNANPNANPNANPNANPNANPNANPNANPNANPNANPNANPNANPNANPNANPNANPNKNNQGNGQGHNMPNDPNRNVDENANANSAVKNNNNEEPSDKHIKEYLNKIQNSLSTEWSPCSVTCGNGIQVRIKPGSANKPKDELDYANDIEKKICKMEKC

## anti-PfCSP 2A10 monoclonal antibody
  circumsporozoite precipitation reaction (CSPR), mean FSC-W: 1220

From patent US20260151470A1
